Reference: the supplement of paper PMC9732359
± gives the uncertainty stated by the source.

Assay: protein stability index of a GFP-peptide fusion (yeast GPS) (PSI 1-4); higher = more stable; sorted into four equal gates, so the index is relative within each strain
How it was run: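 Mid-log yeast cultures in leucine-free medium, carrying a pooled plasmid library, were sorted into four equal gates by their GFP/Cherry fluorescence ratio. Each plasmid expressed Cherry along with GFP fused upstream of a tiled 17-residue yeast protein peptide. Plasmids recovered from each gate were PCR-amplified and Illumina-sequenced, with reads assigned to strains by barcodes. The protein stability index was obtained by summing each gate's read frequency weighted by its gate number.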

| Sequence | protein stability index (doa10∆) | protein stability index (pdr5∆) | protein stability index (san1∆) | protein stability index (ubr1∆) |
| --- | --- | --- | --- | --- |
| HTEDTVNESRNSDDIID [SRB5] | 2.31 ± 0.061 | 2.52 ± 0.056 | 2.43 ± 0.071 | 2.46 ± 0.055 |
| PITASTSRVFAKIISKA [YML103C/NUP188] |  | 3.02 ± 0.14 | 2.53 ± 0.21 |  |
| TDDSFEDKVFASKGRTK [BRN1] |  | 2.74 ± 0.099 | 2.93 ± 0.13 | 2.29 ± 0.18 |
| TTQIDLFRIFSMSEEFK [BRR2] | 2.4 ± 0.14 | 3.12 ± 0.1 | 2.49 ± 0.23 | 3.12 ± 0.073 |
| KRPTPPSFTFGGSTTNN [YOR098C/NUP1] | 2.74 ± 0.051 | 3.03 ± 0.048 | 2.78 ± 0.043 | 2.9 ± 0.032 |
| TAPANTTDANGSKENYQ [MED2] | 2.08 ± 0.066 | 2.06 ± 0.058 | 3.02 ± 0.047 | 2.86 ± 0.066 |
| GGKSVGFGLVYNSVAEA [RPS24A] | 3.11 ± 0.052 | 3.29 ± 0.05 | 3.15 ± 0.035 | 2.84 ± 0.054 |
| VILRKISMLVTQLQRGG [CSI1] | 1.31 ± 0.059 | 1.57 ± 0.056 | 1.55 ± 0.098 | 1.3 ± 0.045 |
| DSNKTLLHNHLKSIESL [SMC2] | 1.87 ± 0.089 | 2.44 ± 0.095 | 1.49 ± 0.22 | 2.78 ± 0.11 |
| TNSSILLGKILPREEHD [RRP6] | 1.55 ± 0.064 | 2.18 ± 0.16 | 1.61 ± 0.25 | 1.58 ± 0.11 |
| SNDPDVNNTRRRVYNRV [BRN1] | 2.81 ± 0.14 | 3.52 ± 0.19 | 3 ± 0.14 | 3.69 ± 0.24 |
| MQENDKINQERLERRIN [CSI1] | 1.62 ± 0.065 | 1.92 ± 0.062 | 1.26 ± 0.1 | 1.27 ± 0.044 |
| PIPIPAFADRLGQYVQA [PRE10] | 2.21 ± 0.08 | 1.95 ± 0.062 | 1.75 ± 0.11 | 2.07 ± 0.097 |
| IIYPRSQTTLVQFGLNE [ARP9] | 3.04 ± 0.19 | 1.33 ± 0.082 | 2.03 ± 0.12 | 1.26 ± 0.17 |
| SLNEKNALHTERLHELK [SMC1] | 3.36 ± 0.061 | 3.11 ± 0.065 | 2.89 ± 0.067 | 2.81 ± 0.054 |
| KQRKNPRRIAWTVLFRK [RPL24A] | 3.03 ± 0.14 | 2.27 ± 0.1 | 1.41 ± 0.25 | 2.27 ± 0.048 |
| LEACIVRIMKAKRNLPH [CDC53] | 1.5 ± 0.087 | 1.61 ± 0.059 | 1.3 ± 0.13 | 1.21 ± 0.045 |
| AQSRNVEIEKRILKLGT [YGR119C/NUP57] | 3.33 ± 0.082 | 3.15 ± 0.071 | 3.33 ± 0.077 | 3.34 ± 0.078 |
| NKLFTEPIKLEPVKEYT [YMR129W/POM152] | 2.34 ± 0.05 | 2.39 ± 0.06 | 2.4 ± 0.084 | 2.4 ± 0.072 |
| NVASLVRVQFQFTGFLL [GRR1] | 1.85 ± 0.072 | 1.73 ± 0.075 | 1.48 ± 0.1 | 1.55 ± 0.058 |
| FMKSVIRSREAFSYEQA [DIS3] | 2.28 ± 0.11 | 2.73 ± 0.082 | 2 ± 0.13 | 2.71 ± 0.12 |
| KAEKAEIRKRRASSLKA [RPS6A] | 2.9 ± 0.25 | 3.48 ± 0.11 |  | 3.06 ± 0.13 |
| HNAGPVAGAGAASGAAA [RPP1B] | 3.11 ± 0.11 | 2.24 ± 0.05 | 2.22 ± 0.12 | 2.02 ± 0.059 |
| APPQRPRFNRENKVSPA [RPS26A] | 3.38 ± 0.15 | 2.83 ± 0.17 | 3 ± 0.072 | 2.95 ± 0.12 |
| PEKEASSATIVLCLTRS [YCG1] | 2.03 ± 0.06 | 2.5 ± 0.061 | 2.1 ± 0.056 | 2.24 ± 0.046 |

| Sequence | protein stability index (doa10∆) | protein stability index (pdr5∆) | protein stability index (san1∆) | protein stability index (ubr1∆) |
| --- | --- | --- | --- | --- |
| LLIATNLKEYNKFMSIF [SRB8] | 1.64 ± 0.051 | 1.82 ± 0.089 | 2.17 ± 0.2 | 1.94 ± 0.086 |
| SPPIIDLFSNNNYNSRI [MED1] | 2.86 ± 0.071 | 2.92 ± 0.076 | 2.86 ± 0.062 | 2.94 ± 0.056 |
| YRVTLESILQMNQGEGE [RPC34] | 2.94 ± 0.19 | 3.16 ± 0.092 | 3.46 ± 0.26 | 2.97 ± 0.12 |
| IIYHTTFSWLNAELLDY [YLR018C/POM34] | 2.72 ± 0.072 | 2.19 ± 0.068 | 2.56 ± 0.092 | 2.41 ± 0.052 |
| FVIGEQGKPYISLPKGK [RPS4A] | 3.34 ± 0.068 | 3.21 ± 0.065 | 3.25 ± 0.051 | 2.41 ± 0.053 |
| EYMKRHPTTIESLREIP [SEC65] | 3.25 ± 0.082 | 3.21 ± 0.068 | 3.17 ± 0.059 | 3.06 ± 0.06 |
| MFTYSQETQHGNITRGL [RPN2] | 3.28 ± 0.08 | 3.12 ± 0.12 | 3.13 ± 0.06 | 3.21 ± 0.046 |
| IEKWTANLLPARQFGYV [RPS22A] | 1.6 ± 0.075 | 1.92 ± 0.088 | 1.8 ± 0.15 | 2.14 ± 0.17 |
| VPFIIAAMVIMHLMALH [COB] | 2.08 ± 0.055 | 1.31 ± 0.055 | 1.79 ± 0.16 | 1.43 ± 0.041 |
| SESVGAFLSFLAYRNYW [YJL039C/NUP192] | 1.69 ± 0.073 | 1.97 ± 0.11 | 1.72 ± 0.12 | 1.84 ± 0.084 |
| IDIQTQDLNQRFQDPYV [RRI1] |  | 2.86 ± 0.18 | 2.28 ± 0.22 |  |
| GISDMCRLFFTELASKD [YCS4] | 2.37 ± 0.085 | 2.4 ± 0.087 | 2.18 ± 0.1 | 2.61 ± 0.078 |
| DKIHARARGPMQVLTRQ [RPB2] | 3.16 ± 0.13 | 3.22 ± 0.12 | 2.97 ± 0.09 | 3.21 ± 0.19 |
| RNVGKTLVNKSTGLKNA [RPS1B] | 2.81 ± 0.098 | 2.72 ± 0.097 | 2.59 ± 0.12 | 2.96 ± 0.086 |
| VSSSKNKKSEENEMIKP [SWP82] | 2.72 ± 0.25 | 3.34 ± 0.14 | 3.18 ± 0.14 | 3.49 ± 0.28 |
| IRRTFNIVNDFTPEEEA [SKP1] | 2.71 ± 0.099 | 3.28 ± 0.05 | 3.16 ± 0.05 | 3.08 ± 0.041 |
| IEDVTPVPSDSTRKKGG [RPS14B] | 2.99 ± 0.039 | 3.15 ± 0.045 | 2.96 ± 0.051 | 3.03 ± 0.04 |
| KADIGKPGRMPFNFTVT [CDC53] | 2.33 ± 0.042 | 2.75 ± 0.048 | 2.73 ± 0.058 | 2.89 ± 0.05 |
| DILLCYQKLFSQFINDH [SRB8] | 2.37 ± 0.034 | 2.64 ± 0.037 | 2.64 ± 0.042 | 1.84 ± 0.034 |
| IDFTLLNRLLRLIVDPN [PRP8] | 1.85 ± 0.059 | 1.88 ± 0.058 | 1.84 ± 0.071 | 1.73 ± 0.051 |
| LTYLYEMKNIRGPYLVI [SNF2] | 1.22 ± 0.059 | 1.32 ± 0.04 | 1.27 ± 0.098 | 1.22 ± 0.042 |
| LTHVDLIEKFLRYNPLE [RPB10] | 2.91 ± 0.14 | 3.29 ± 0.12 | 3.23 ± 0.071 | 3.12 ± 0.04 |
| AIKDKLEQDLHFENAKV [YIL149C/MLP2] | 3.09 ± 0.066 | 3.29 ± 0.075 | 3.35 ± 0.069 | 3.16 ± 0.079 |
| NQSSFNFGNNGAGGLNP [YOR098C/NUP1] | 3.15 ± 0.069 | 3.1 ± 0.076 | 3.2 ± 0.045 | 3.25 ± 0.064 |
| KNKENNTFTWNHSLQHQ [RPN4] | 2.37 ± 0.083 | 2.34 ± 0.096 | 2.25 ± 0.067 | 1.95 ± 0.046 |
